We go through one substance from paper PMC5697745.

A word on the Kd: it is the free concentration of one partner at which half of the binding sites on the other are occupied at equilibrium, for simple one-to-one binding. Higher therefore signals a looser complex.

This test addresses FAM-AIP-I, fluorescein-tagged AIP-I (Staphylococcus aureus (group I)). Kind of test: fluorescence polarisation.

“AgrC-I^R238H, constitutively active full-length AgrC-I mutant, in nanodiscs (receptor)” came in with a Kd of 0.051 µM.
